The target of the first assay is T1, Rvs167 SH3 (RV167_YEAST), P39743.
T1 chain: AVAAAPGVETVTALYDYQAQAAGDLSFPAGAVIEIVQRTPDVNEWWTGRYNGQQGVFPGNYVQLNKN
The experiment in a line: SPOT array.
Take GAIPRGPKKDDASF [YPR161C 424-437]: the normalised SPOT signal, Boehringer light units (BLU); mean over the file's lines of this peptide came to 48.1.

In the case of GAKPKIPSKLYQSV [YBR138C 124-137], the normalised SPOT signal, Boehringer light units (BLU); mean over the file's lines of this peptide was found to be 42.7.

FTAPPVPTKKKSKN [YDR517W 316-329]: the normalised SPOT signal, Boehringer light units (BLU); mean over the file's lines of this peptide turned out to be 86.4.

The molecule GAPPPPPHKDHLSD [YMR280C 206-219] showed a normalised SPOT signal, Boehringer light units (BLU); mean over the file's lines of this peptide of 75.6.

GGPPLLPQKSAAFQ [YPL084W 731-744] yielded a normalised SPOT signal, Boehringer light units (BLU); mean over the file's lines of this peptide of 28.4.

FWNPENPYKFVHPR [YEL011W 171-184] gave a normalised SPOT signal, Boehringer light units (BLU); mean over the file's lines of this peptide of 67.7.

As for FVLPSLPRKNTYKV [YOR034C 343-356], the normalised SPOT signal, Boehringer light units (BLU); mean over the file's lines of this peptide was 16.4.

Regarding FVSPRIPSRIVKNG [YOR086C 892-905], the normalised SPOT signal, Boehringer light units (BLU); mean over the file's lines of this peptide was determined as 10100.

In the case of FVPPNLPMRRFKEI [YNL047C 421-434], the normalised SPOT signal, Boehringer light units (BLU); mean over the file's lines of this peptide stood at 11800.

In turn, GAPPTTPSRPRTTT [YGR170W 91-104] yielded a normalised SPOT signal, Boehringer light units (BLU); mean over the file's lines of this peptide of 366.

As to FVIPGVPSKSYSLF [YGR065C 310-323], the normalised SPOT signal, Boehringer light units (BLU); mean over the file's lines of this peptide stood at 0.

Molecule FYEPLDPQKDKDMT [YJL155C 176-189] showed a normalised SPOT signal, Boehringer light units (BLU); mean over the file's lines of this peptide of 14.1.

In turn, GGDPTKPVRTWNDL [YEL056W 193-206] showed a normalised SPOT signal, Boehringer light units (BLU); mean over the file's lines of this peptide of 16.4.

Consider GGQPPVPVRMQPQP [YBR108W 379-392], for which the normalised SPOT signal, Boehringer light units (BLU); mean over the file's lines of this peptide was 794.

Regarding FYYPESPTKNLRPR [YML119W 56-69], the normalised SPOT signal, Boehringer light units (BLU); mean over the file's lines of this peptide is 28.6.

A further assay has as its target T2, Yfr024 SH3 (LSB3_YEAST), P43603.
T2 chain: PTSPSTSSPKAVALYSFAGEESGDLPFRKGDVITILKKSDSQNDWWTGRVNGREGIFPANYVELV
Nature of the assay: SPOT array.
The molecule GAIPRGPKKDDASF [YPR161C 424-437] returned a normalised SPOT signal, Boehringer light units (BLU); mean over the file's lines of this peptide of 225.

The molecule GAKPKIPSKLYQSV [YBR138C 124-137] had a normalised SPOT signal, Boehringer light units (BLU); mean over the file's lines of this peptide of 313.

For the molecule FTAPPVPTKKKSKN [YDR517W 316-329], the normalised SPOT signal, Boehringer light units (BLU); mean over the file's lines of this peptide stood at 9160.

GAPPPPPHKDHLSD [YMR280C 206-219] returned a normalised SPOT signal, Boehringer light units (BLU); mean over the file's lines of this peptide of 47.2.

GGPPLLPQKSAAFQ [YPL084W 731-744] came in with a normalised SPOT signal, Boehringer light units (BLU); mean over the file's lines of this peptide of 7090.

Consider FWNPENPYKFVHPR [YEL011W 171-184], for which the normalised SPOT signal, Boehringer light units (BLU); mean over the file's lines of this peptide amounted to 524.

The molecule FVLPSLPRKNTYKV [YOR034C 343-356] registered a normalised SPOT signal, Boehringer light units (BLU); mean over the file's lines of this peptide of 4240.

For the molecule FVSPRIPSRIVKNG [YOR086C 892-905], the normalised SPOT signal, Boehringer light units (BLU); mean over the file's lines of this peptide worked out at 34100.

Regarding FVPPNLPMRRFKEI [YNL047C 421-434], the normalised SPOT signal, Boehringer light units (BLU); mean over the file's lines of this peptide amounted to 25900.

Molecule GAPPTTPSRPRTTT [YGR170W 91-104] displayed a normalised SPOT signal, Boehringer light units (BLU); mean over the file's lines of this peptide of 13900.

Molecule FVIPGVPSKSYSLF [YGR065C 310-323] displayed a normalised SPOT signal, Boehringer light units (BLU); mean over the file's lines of this peptide of 44.7.

FYEPLDPQKDKDMT [YJL155C 176-189] yielded a normalised SPOT signal, Boehringer light units (BLU); mean over the file's lines of this peptide of 121.

GGDPTKPVRTWNDL [YEL056W 193-206] gave a normalised SPOT signal, Boehringer light units (BLU); mean over the file's lines of this peptide of 203.

As to GGQPPVPVRMQPQP [YBR108W 379-392], the normalised SPOT signal, Boehringer light units (BLU); mean over the file's lines of this peptide stood at 6010.

The molecule FYYPESPTKNLRPR [YML119W 56-69] showed a normalised SPOT signal, Boehringer light units (BLU); mean over the file's lines of this peptide of 292.

In the next assay the target is T3, Boi1 SH3 (BOI1_YEAST), P38041.
T3 chain: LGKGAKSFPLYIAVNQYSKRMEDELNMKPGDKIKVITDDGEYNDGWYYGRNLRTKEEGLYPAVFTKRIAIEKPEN
Nature of the assay: SPOT array.
For GAIPRGPKKDDASF [YPR161C 424-437], the normalised SPOT signal, Boehringer light units (BLU); mean over the file's lines of this peptide was determined as 94.3.

On to GAKPKIPSKLYQSV [YBR138C 124-137], for which the normalised SPOT signal, Boehringer light units (BLU); mean over the file's lines of this peptide stood at 68.4.

On to FTAPPVPTKKKSKN [YDR517W 316-329], for which the normalised SPOT signal, Boehringer light units (BLU); mean over the file's lines of this peptide stood at 346.

As for GAPPPPPHKDHLSD [YMR280C 206-219], the normalised SPOT signal, Boehringer light units (BLU); mean over the file's lines of this peptide was 104.

Take GGPPLLPQKSAAFQ [YPL084W 731-744]: the normalised SPOT signal, Boehringer light units (BLU); mean over the file's lines of this peptide came to 128.

On to FWNPENPYKFVHPR [YEL011W 171-184], for which the normalised SPOT signal, Boehringer light units (BLU); mean over the file's lines of this peptide came to 169.

The molecule FVLPSLPRKNTYKV [YOR034C 343-356] registered a normalised SPOT signal, Boehringer light units (BLU); mean over the file's lines of this peptide of 96.3.

Turning to FVSPRIPSRIVKNG [YOR086C 892-905], the normalised SPOT signal, Boehringer light units (BLU); mean over the file's lines of this peptide was 898.

FVPPNLPMRRFKEI [YNL047C 421-434] came in with a normalised SPOT signal, Boehringer light units (BLU); mean over the file's lines of this peptide of 11000.

Molecule GAPPTTPSRPRTTT [YGR170W 91-104] came in with a normalised SPOT signal, Boehringer light units (BLU); mean over the file's lines of this peptide of 0.

As to FVIPGVPSKSYSLF [YGR065C 310-323], the normalised SPOT signal, Boehringer light units (BLU); mean over the file's lines of this peptide stood at 94.

As for FYEPLDPQKDKDMT [YJL155C 176-189], the normalised SPOT signal, Boehringer light units (BLU); mean over the file's lines of this peptide is 71.3.

GGDPTKPVRTWNDL [YEL056W 193-206]: the normalised SPOT signal, Boehringer light units (BLU); mean over the file's lines of this peptide turned out to be 31.1.

GGQPPVPVRMQPQP [YBR108W 379-392] showed a normalised SPOT signal, Boehringer light units (BLU); mean over the file's lines of this peptide of 85.9.

FYYPESPTKNLRPR [YML119W 56-69] came in with a normalised SPOT signal, Boehringer light units (BLU); mean over the file's lines of this peptide of 867.

Another assay addresses T4, Boi2 SH3 (BOI2_YEAST), P39969.
T4 chain: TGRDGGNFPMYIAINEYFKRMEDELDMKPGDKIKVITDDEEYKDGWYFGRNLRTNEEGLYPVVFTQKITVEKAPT
The experiment in a line: SPOT array.
GAIPRGPKKDDASF [YPR161C 424-437] yielded a normalised SPOT signal, Boehringer light units (BLU); mean over the file's lines of this peptide of 5.7.

Molecule GAKPKIPSKLYQSV [YBR138C 124-137] came in with a normalised SPOT signal, Boehringer light units (BLU); mean over the file's lines of this peptide of 76.3.

As for FTAPPVPTKKKSKN [YDR517W 316-329], the normalised SPOT signal, Boehringer light units (BLU); mean over the file's lines of this peptide was determined as 44.8.

As to GAPPPPPHKDHLSD [YMR280C 206-219], the normalised SPOT signal, Boehringer light units (BLU); mean over the file's lines of this peptide is 17.2.

With GGPPLLPQKSAAFQ [YPL084W 731-744], the normalised SPOT signal, Boehringer light units (BLU); mean over the file's lines of this peptide came to 2.

FWNPENPYKFVHPR [YEL011W 171-184] registered a normalised SPOT signal, Boehringer light units (BLU); mean over the file's lines of this peptide of 55.6.

The molecule FVLPSLPRKNTYKV [YOR034C 343-356] yielded a normalised SPOT signal, Boehringer light units (BLU); mean over the file's lines of this peptide of 20.4.

Take FVSPRIPSRIVKNG [YOR086C 892-905]: the normalised SPOT signal, Boehringer light units (BLU); mean over the file's lines of this peptide came out at 1080.

Take FVPPNLPMRRFKEI [YNL047C 421-434]: the normalised SPOT signal, Boehringer light units (BLU); mean over the file's lines of this peptide came to 160.

In the case of GAPPTTPSRPRTTT [YGR170W 91-104], the normalised SPOT signal, Boehringer light units (BLU); mean over the file's lines of this peptide is 78.2.

Turning to FVIPGVPSKSYSLF [YGR065C 310-323], the normalised SPOT signal, Boehringer light units (BLU); mean over the file's lines of this peptide was found to be 48.3.

On to FYEPLDPQKDKDMT [YJL155C 176-189], for which the normalised SPOT signal, Boehringer light units (BLU); mean over the file's lines of this peptide worked out at 19.8.

In turn, GGDPTKPVRTWNDL [YEL056W 193-206] returned a normalised SPOT signal, Boehringer light units (BLU); mean over the file's lines of this peptide of 42.7.

The molecule GGQPPVPVRMQPQP [YBR108W 379-392] had a normalised SPOT signal, Boehringer light units (BLU); mean over the file's lines of this peptide of 89.9.

With FYYPESPTKNLRPR [YML119W 56-69], the normalised SPOT signal, Boehringer light units (BLU); mean over the file's lines of this peptide came out at 44.1.

The target of a further assay is T5, Yhr016c SH3 (YSC84_YEAST), P32793.
T5 chain: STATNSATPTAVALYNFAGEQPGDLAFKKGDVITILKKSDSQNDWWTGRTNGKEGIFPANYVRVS
Nature of the assay: SPOT array.
For GAIPRGPKKDDASF [YPR161C 424-437], the normalised SPOT signal, Boehringer light units (BLU); mean over the file's lines of this peptide was 236.

The molecule GAKPKIPSKLYQSV [YBR138C 124-137] came in with a normalised SPOT signal, Boehringer light units (BLU); mean over the file's lines of this peptide of -0.

In turn, FTAPPVPTKKKSKN [YDR517W 316-329] had a normalised SPOT signal, Boehringer light units (BLU); mean over the file's lines of this peptide of 216.

With GAPPPPPHKDHLSD [YMR280C 206-219], the normalised SPOT signal, Boehringer light units (BLU); mean over the file's lines of this peptide was 154.

Turning to GGPPLLPQKSAAFQ [YPL084W 731-744], the normalised SPOT signal, Boehringer light units (BLU); mean over the file's lines of this peptide came to 119.

FWNPENPYKFVHPR [YEL011W 171-184] showed a normalised SPOT signal, Boehringer light units (BLU); mean over the file's lines of this peptide of 248.

Regarding FVLPSLPRKNTYKV [YOR034C 343-356], the normalised SPOT signal, Boehringer light units (BLU); mean over the file's lines of this peptide is 75.7.

With FVSPRIPSRIVKNG [YOR086C 892-905], the normalised SPOT signal, Boehringer light units (BLU); mean over the file's lines of this peptide amounted to 9870.

FVPPNLPMRRFKEI [YNL047C 421-434] had a normalised SPOT signal, Boehringer light units (BLU); mean over the file's lines of this peptide of 23200.

With GAPPTTPSRPRTTT [YGR170W 91-104], the normalised SPOT signal, Boehringer light units (BLU); mean over the file's lines of this peptide came to 9930.

Consider FVIPGVPSKSYSLF [YGR065C 310-323], for which the normalised SPOT signal, Boehringer light units (BLU); mean over the file's lines of this peptide turned out to be 66.7.

Molecule FYEPLDPQKDKDMT [YJL155C 176-189] showed a normalised SPOT signal, Boehringer light units (BLU); mean over the file's lines of this peptide of 129.

GGDPTKPVRTWNDL [YEL056W 193-206] yielded a normalised SPOT signal, Boehringer light units (BLU); mean over the file's lines of this peptide of 170.

Molecule GGQPPVPVRMQPQP [YBR108W 379-392] registered a normalised SPOT signal, Boehringer light units (BLU); mean over the file's lines of this peptide of 1930.

In turn, FYYPESPTKNLRPR [YML119W 56-69] registered a normalised SPOT signal, Boehringer light units (BLU); mean over the file's lines of this peptide of 36.3.

The record behind these values is PMC314469, “Protein Interaction Networks by Proteome Peptide Scanning” (PLoS Biology, 2004).
